Data: patent publication US20220275098A1 (NANTBIO, published 2022)
Changes are numbered by the printed parent chain.

T1: CD30 (analyte in SPR) (UniProt P28908 19-379, limits assumed)
T1 construct: also called Cluster of Differentiation 30; Ki-1
T1 sequence (looked up): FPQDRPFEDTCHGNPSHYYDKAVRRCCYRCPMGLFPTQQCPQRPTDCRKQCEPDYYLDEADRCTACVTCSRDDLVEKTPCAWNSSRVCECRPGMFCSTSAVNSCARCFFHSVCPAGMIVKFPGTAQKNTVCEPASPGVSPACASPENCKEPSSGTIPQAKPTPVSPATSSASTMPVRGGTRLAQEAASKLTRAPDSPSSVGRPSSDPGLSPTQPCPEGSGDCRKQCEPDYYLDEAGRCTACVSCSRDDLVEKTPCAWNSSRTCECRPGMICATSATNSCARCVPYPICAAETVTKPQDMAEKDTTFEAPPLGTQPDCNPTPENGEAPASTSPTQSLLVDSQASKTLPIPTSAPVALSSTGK

B1: anti-CD30 IgG1 (52-2) (antibody, V domains shown)
VH: EVQLVESGGGLVQPGGSLRLSCAASGFTFSSYYMHWVRQAPGKGLEWVSAISWSGGSTYYADSVKGRFTISRDNSKNTLYLQMNSLRAEDTAVYYCARDRFMPFIPNTLGFDVWGQGTLVTVSS
VL: DIQMTQSPSSLSASVGDRVTITCQASQDISNYLNWYQQKPGKAPKLLIYVASNLETGVPSRFSGSGSGTDFTFTISSLQPEDIATYYCQQDADVPLTFGQGTKVEIK
notes: also called aCD30 clone 52-2 IgG1
B2: anti-CD30 IgG1 (52-38) (antibody, V domains shown)
VH: B1 VH with Y33W, G56D, F101S, M102A, P103T, F104W, I105Y, P106Y, N107L, T108G
VL: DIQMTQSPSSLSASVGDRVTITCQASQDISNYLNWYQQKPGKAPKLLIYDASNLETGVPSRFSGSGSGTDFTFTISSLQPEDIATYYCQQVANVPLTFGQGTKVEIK
notes: also called aCD30 clone 52-38 IgG1
B3: anti-CD30 IgG1 (52-5) (antibody, V domains shown)
VH: B1 VH
VL: B1 VL with V50D
notes: also called aCD30 clone 52-5 IgG1

What follows are binders tested against T1, CD30 (analyte in SPR) (assay: SPR, 25° C. pH 7.4, IgG1 captured on chip, CD30 as analyte, average value).
From the text: Using the VH and VL domains as noted above, the inventors prepared various CD30 binding constructs, and exemplary results for scFv and IgG1 constructs are shown below.

Row | Kd | Binder
1 | 3 nM | B1
2 | 2.5 nM | B2
3 | 22.3 nM | B3
